Assay: soluble on expression in E. coli; label from the status in PepcDB or PDB records

Question: Which “soluble on expression in E. coli” value does the source give for “MERARVIAEAAAHISRELGAAAIMVSGDLNFEGIETGEIPVYYISMRPKSIIDHLVATSKDGKSPVKELGDQLTREASGNVEYVQHAAAIEYALEGPKNGIVVGVIETRGSSSIIVHNLDDNPLIKAMKECEERVNPEVMNAVLKIAFDIALTGREGKKIGAAFIVGDSEEVLKRSHQIILNPYEGHEEAHRNILDRRNWESIKEFALLDGVFVIDETGIVRAAGRYLDVDGKNIDIEKGLGGRHVSAAAISRDTVAISVTVSESGGVLRVYKDAKETICMESLQPASRYV” here?
Answer: The value was “soluble”.

Question: With “MGSDKIHHHHHHMLTMIQQYHIKHLNFHKGKSLRSIAEETGHDFRTVKKYAEQTDFNEIRKPKRGRPSKLDPVKPIIDAWLKEDLNRPVKQRHTARRIYDRLCDEHQDIFNACERTVRTYVSARKKELYGEEEGYLPLEHPAGEAQVDFGEIVMIEQGQKVKGYELILSLPYSNAGYPQIFRGQNQECLLTGLKDIF” as the sequence, how does the “soluble on expression in E. coli” value read?
Answer: Its value is “not soluble”.

Question: For “MGSDKIHHHHHHMTETERLALASLLYQLADDDFLYAYRGSEWLGLAPHIEEDVASSSIAQDSMGHAAMYYQLLEEIGEGKADALAHVRLAHERKNSVLVERVNGPGYYMENPEYDWAYAVVRNYCYTLAKKVRIDSLKKSSYTPLAALAVKVNMELYYHLLHWQTWFTQLYQSTETARQKMDAALERVLADFGDLFDYGEASELIDEMRLIEGQGILLDRWYQALTPVLVDLNVTLPEMKMTYNGRNGEHSPDLNDALSTLGEVYLLDQSAVW”, which “soluble on expression in E. coli” value is on record?
Answer: The value was “not soluble”.

Question: Which “soluble on expression in E. coli” value does the source give for “MTALEVLGGWPVPAAAAAVIGPAGVLATHGDTARVFALASVTKPLVARAAQVAVEEGVVNLDTPAGPPGSTVRHLLAHTSGLAMHSDQALARPGTRRMYSNYGFTVLAESVQRESGIEFGRYLTEAVCEPLGMVTTRLDGGPAAAGFGATSTVADLAVFAGDLLRPSTVSAQMHADATTVQFPGLDGVLPGYGVQRPNDWGLGFEIRNSKSPHWTGECNSTRTFGHFGQSGGFIWVDPKADLALVVLTARDFGDWALDLWPAISDAVLAEYTLEHHHHHH” here?
Answer: The value was “soluble”.

Question: For “SLKSGCSARQVCAGNTHFAVVTVEKELYTWVNMQGGTKLHGQLGHGDKASYRQPKHVEKLQGKAIHQVSCGDDFTVCVTDEGQLYAFGSDYYGCMGVDKVAGPEVLEPMQLNFFLSNPVEQVSCGDNHVVVLTRNKEVYSWGCGEYGRLGLDSEEDYYTPQKVDVPKALIIVAVQCGCDGTFLLTQSGKVLACGLNEFNKLGLNQCMSGIINHEAYHEVPYTTSFTLAKQLSFYKIRTIAPGKTHTAAIDERGRLLTFGCNKCGQLGVGNYKKRLGINLLGGPLGGKQVIRVSCGDEFTIAATDDNHIFAWGNGGNGRLAMTPTERPHGSDICTSWPRPIFGSLHHVPDLSCRGWHTILIVEKVLNSKTIRSNSSGLSIGTVFQSSS”, which “soluble on expression in E. coli” value is on record?
Answer: Its value is “soluble”.

Question: Which “soluble on expression in E. coli” value does the source give for “MMEDVGKEMSKIIQKRDINERYEELVNEVLKDQDVQAFIQANRERLTDEDIRKSYAKLYEFVQEKKKFQVNDPAMIAPGYEPRLMLNFHYIDVTYVPTADLIARQKEEEIRNRVRAMDMPKDVREANLRDFDPSSQGRAKALAEAMQFLREYPATPKEFHKGLYLQGPFGVGKSFLLGAMANALAERGFTTTIVHFPTFTVEMKQAIGRDQVGEKLDAVKKSPILMIDDIGAESMTSWIRDDVLSVILQYRMQEQLVTFFSSNLDLKALEEHLTVTQRGEQEPLKARRIMERVRYLSKEITMTGNDRRNG” here?
Answer: The value was “not soluble”.

Question: For “MKIKVISRNPNTYQRETTDKRNKIVRNFNTPADPFRSQVEYTRALNATKLERVFAKPFVASLDGHVDGVQVLAKHPNRPSTVFSGARDGQVKIWNLASRECQATLDAHRGLVNDISIDNNNGENFVTVGQDNQLKYWKIEGQQKTPAHSIAMDGIVYGVSHLSFSSDFVTCGEDISVWKPYRETPLRSYNLGTDTIHTCRANPVEENVIVGARSDRSIYVLDTRQDVPLKKVTMKMRPNKISWNPMEAYNFTVASEDYSLYTFDMRYMEHPVQSHQGFTSAVLDVDYSPTGQEFVAAGYDRSIRLFKARDMTSRDVYYTKRMASVLSVLWSADSKFVLSGSNEMNIRVWKANAAEKLGPLTKREKQAFAYNEKLRDTYKNHPEVRRIAKHRNVPRHIFTAAKEHKLIRDARGRRDFRRAKAAGLDEEESYLPQTQKIMVGDAEM”, which “soluble on expression in E. coli” value is on record?
Answer: The value was “not soluble”.

Question: Which “soluble on expression in E. coli” value does the source give for “MYDTPIFRSEFKVISHELIHALPKVILGESGDAAYMQSRVQQLADDHVAYFECTVPHEDIERAISVAEQAPFTVGILERIDDSSHYTDRSRTPVVVGFSTQSADVAAILRENYVPFEFDGSVADQVRVGASRIIHGIGLFEDFRFEDDDIVPGRLSAWVRDRDYPVLVEPFADLENGEVAELADHPLPLMSKLGYRTASSILSTDRLLELTEYLELQIEDLFELTRDAVAVSLLPQPLRVQLWEELVFPFFEQLGEDFADHSTTDDAESTTELRSEREHAGHAHTDHHGGAAGLEGVDPQFLDEMGIEFDDLDL” here?
Answer: Its value is “not soluble”.

Question: With “MLCASAEVEVFYDTDNNRKSDPAVFWQNPLNRSKFPLLSQIANRYLTTPASSAESERVFSGAGRVSTKLRRKMSTKSLSKSVFLQQNQKVLGFKIGLD” as the sequence, how does the “soluble on expression in E. coli” value read?
Answer: The value was “not soluble”.

Reference: the DeepSol protein solubility set
